To fix the notation:
T1: C-terminally 6x Histidine-tagged Beta-Catenin (aa 134-668, 59 KD) (UniProt P35222 134-668)
T1 construct: range 134-668; Armadillo repeat region
T1 sequence: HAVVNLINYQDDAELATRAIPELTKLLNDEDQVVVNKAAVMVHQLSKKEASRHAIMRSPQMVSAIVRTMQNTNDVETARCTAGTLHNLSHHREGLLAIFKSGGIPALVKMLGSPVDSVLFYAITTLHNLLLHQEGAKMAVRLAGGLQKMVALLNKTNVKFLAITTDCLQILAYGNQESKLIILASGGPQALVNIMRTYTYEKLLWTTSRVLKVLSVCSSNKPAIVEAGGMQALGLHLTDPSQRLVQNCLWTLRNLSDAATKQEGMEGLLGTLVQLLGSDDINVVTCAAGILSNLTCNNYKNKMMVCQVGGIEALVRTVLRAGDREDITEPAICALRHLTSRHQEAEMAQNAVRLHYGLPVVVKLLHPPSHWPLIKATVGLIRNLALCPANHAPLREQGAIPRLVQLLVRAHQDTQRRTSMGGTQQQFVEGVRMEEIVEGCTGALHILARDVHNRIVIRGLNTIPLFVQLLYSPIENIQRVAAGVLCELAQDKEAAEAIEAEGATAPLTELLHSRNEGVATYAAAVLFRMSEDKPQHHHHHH

B1: SP43 (peptide)
peptide: Ac-SA[S5]RDL[S5]NVKSSLV-NH2
modifications: staple 3-7
SMILES: CC(=O)N[C@@H](CO)C(=O)N[C@@H](C)C(=O)N[C@@]1(C)CCCC=CCCC[C@@](C)(C(=O)N[C@@H](CC(N)=O)C(=O)N[C@H](C(=O)N[C@@H](CCCCN)C(=O)N[C@@H](CO)C(=O)N[C@@H](CO)C(=O)N[C@@H](CC(C)C)C(=O)N[C@H](C(N)=O)C(C)C)C(C)C)NC(=O)[C@H](CC(C)C)NC(=O)[C@H](CC(=O)O)NC(=O)[C@H](CCCNC(=N)N)NC1=O
notes: also called Ac-SA$RDL$NVKSSLV-NH2
B2: SP6 (peptide)
peptide: Ac-RDLA[S5]VKS[S5]LVNQS-NH2
modifications: staple 5-9
SMILES: CC(=O)N[C@@H](CCCNC(=N)N)C(=O)N[C@@H](CC(=O)O)C(=O)N[C@@H](CC(C)C)C(=O)N[C@@H](C)C(=O)N[C@@]1(C)CCCC=CCCC[C@@](C)(C(=O)N[C@@H](CC(C)C)C(=O)N[C@H](C(=O)N[C@@H](CC(N)=O)C(=O)N[C@@H](CCC(N)=O)C(=O)N[C@@H](CO)C(N)=O)C(C)C)NC(=O)[C@H](CO)NC(=O)[C@H](CCCCN)NC(=O)[C@H](C(C)C)NC1=O
notes: also called Ac-RDLA$VKS$LVNQS-NH2
B3: SP42 (peptide)
peptide: Ac-SA[S5]RNL[S5]DVKSSLV-NH2
modifications: staple 3-7
SMILES: CC(=O)N[C@@H](CO)C(=O)N[C@@H](C)C(=O)N[C@@]1(C)CCCC=CCCC[C@@](C)(C(=O)N[C@@H](CC(=O)O)C(=O)N[C@H](C(=O)N[C@@H](CCCCN)C(=O)N[C@@H](CO)C(=O)N[C@@H](CO)C(=O)N[C@@H](CC(C)C)C(=O)N[C@H](C(N)=O)C(C)C)C(C)C)NC(=O)[C@H](CC(C)C)NC(=O)[C@H](CC(N)=O)NC(=O)[C@H](CCCNC(=N)N)NC1=O
notes: also called Ac-SA$RNL$DVKSSLV-NH2
B4: SP36 (peptide)
peptide: Ac-VERGLANVK[S5]SLV[S5]ES-NH2
modifications: staple 10-14
SMILES: CC(=O)N[C@H](C(=O)N[C@@H](CCC(=O)O)C(=O)N[C@@H](CCCNC(=N)N)C(=O)NCC(=O)N[C@@H](CC(C)C)C(=O)N[C@@H](C)C(=O)N[C@@H](CC(N)=O)C(=O)N[C@H](C(=O)N[C@@H](CCCCN)C(=O)N[C@@]1(C)CCCC=CCCC[C@@](C)(C(=O)N[C@@H](CCC(=O)O)C(=O)N[C@@H](CO)C(N)=O)NC(=O)[C@H](C(C)C)NC(=O)[C@H](CC(C)C)NC(=O)[C@H](CO)NC1=O)C(C)C)C(C)C
B5: SP54 (peptide)
peptide: Ac-SA[S5]RDL[S5]NVKSSLV-NH2
modifications: staple 3-7
SMILES: CC(=O)N[C@@H](CO)C(=O)N[C@@H](C)C(=O)N[C@@]1(C)CCCC=CCCC[C@@](C)(C(=O)N[C@@H](CC(N)=O)C(=O)N[C@H](C(=O)N[C@@H](CCCCN)C(=O)N[C@@H](CO)C(=O)N[C@@H](CO)C(=O)N[C@@H](CC(C)C)C(=O)N[C@H](C(N)=O)C(C)C)C(C)C)NC(=O)[C@H](CC(C)C)NC(=O)[C@H](CC(=O)O)NC(=O)[C@H](CCCNC(=N)N)NC1=O
notes: as for B1
B6: SP5 (peptide)
peptide: Ac-RNLADVKS[S5]LVN[S5]S-NH2
modifications: staple 9-13
SMILES: CC(=O)N[C@@H](CCCNC(=N)N)C(=O)N[C@@H](CC(N)=O)C(=O)N[C@@H](CC(C)C)C(=O)N[C@@H](C)C(=O)N[C@@H](CC(=O)O)C(=O)N[C@H](C(=O)N[C@@H](CCCCN)C(=O)N[C@@H](CO)C(=O)N[C@@]1(C)CCCC=CCCC[C@@](C)(C(=O)N[C@@H](CO)C(N)=O)NC(=O)[C@H](CC(N)=O)NC(=O)[C@H](C(C)C)NC(=O)[C@H](CC(C)C)NC1=O)C(C)C
B7: SP7 (peptide)
peptide: Ac-RDLA[R8]VKSSLV[S5]QS-NH2
modifications: staple 5-12
SMILES: CC(=O)N[C@@H](CCCNC(=N)N)C(=O)N[C@@H](CC(=O)O)C(=O)N[C@@H](CC(C)C)C(=O)N[C@@H](C)C(=O)N[C@]1(C)CCCCCCC=CCCC[C@@](C)(C(=O)N[C@@H](CCC(N)=O)C(=O)N[C@@H](CO)C(N)=O)NC(=O)[C@H](C(C)C)NC(=O)[C@H](CC(C)C)NC(=O)[C@H](CO)NC(=O)[C@H](CO)NC(=O)[C@H](CCCCN)NC(=O)[C@H](C(C)C)NC1=O
notes: also called Ac-RDLA$r8VKSSLV$QS-NH2
B8: SP56 (peptide)
peptide: Ac-RDLA[S5]VVS[S5]LVNES-NH2
modifications: staple 5-9
SMILES: CC(=O)N[C@@H](CCCNC(=N)N)C(=O)N[C@@H](CC(=O)O)C(=O)N[C@@H](CC(C)C)C(=O)N[C@@H](C)C(=O)N[C@@]1(C)CCCC=CCCC[C@@](C)(C(=O)N[C@@H](CC(C)C)C(=O)N[C@H](C(=O)N[C@@H](CC(N)=O)C(=O)N[C@@H](CCC(=O)O)C(=O)N[C@@H](CO)C(N)=O)C(C)C)NC(=O)[C@H](CO)NC(=O)[C@H](C(C)C)NC(=O)[C@H](C(C)C)NC1=O
notes: also called Ac-RDLA$VVS$LVNES-NH2
B9: SP55 (peptide)
peptide: Ac-SA[S5]RNL[S5]DVKSSLV-NH2
modifications: staple 3-7
SMILES: CC(=O)N[C@@H](CO)C(=O)N[C@@H](C)C(=O)N[C@@]1(C)CCCC=CCCC[C@@](C)(C(=O)N[C@@H](CC(=O)O)C(=O)N[C@H](C(=O)N[C@@H](CCCCN)C(=O)N[C@@H](CO)C(=O)N[C@@H](CO)C(=O)N[C@@H](CC(C)C)C(=O)N[C@H](C(N)=O)C(C)C)C(C)C)NC(=O)[C@H](CC(C)C)NC(=O)[C@H](CC(N)=O)NC(=O)[C@H](CCCNC(=N)N)NC1=O
notes: as for B3
B10: SP51 (peptide)
peptide: LGANDELISFADEGAQEEKSS
chain: AARDLANVKSSLV
modifications: not fully specified; N-terminal acetyl; C-terminal amide; PEG4 = NH-(PEG)4-COOH (19 atoms) linker between the two peptide parts; $ = (S)-alpha-(2'-pentenyl)alanine at positions 11 and 15 of the first part and at positions 2 and 6 of the second part, each pair joined by an all-carbon crosslinker with one double bond
notes: The two peptide parts are joined by a non-peptide PEG4 spacer, not by a peptide bond
B11: SP8 (peptide)
peptide: Ac-RDLANVKS[S5]LVN[S5]S-NH2
modifications: staple 9-13
SMILES: CC(=O)N[C@@H](CCCNC(=N)N)C(=O)N[C@@H](CC(=O)O)C(=O)N[C@@H](CC(C)C)C(=O)N[C@@H](C)C(=O)N[C@@H](CC(N)=O)C(=O)N[C@H](C(=O)N[C@@H](CCCCN)C(=O)N[C@@H](CO)C(=O)N[C@@]1(C)CCCC=CCCC[C@@](C)(C(=O)N[C@@H](CO)C(N)=O)NC(=O)[C@H](CC(N)=O)NC(=O)[C@H](C(C)C)NC(=O)[C@H](CC(C)C)NC1=O)C(C)C
B12: SP3 (peptide)
peptide: Ac-RNLA[S5]VKS[S5]LVNES-NH2
modifications: staple 5-9
SMILES: CC(=O)N[C@@H](CCCNC(=N)N)C(=O)N[C@@H](CC(N)=O)C(=O)N[C@@H](CC(C)C)C(=O)N[C@@H](C)C(=O)N[C@@]1(C)CCCC=CCCC[C@@](C)(C(=O)N[C@@H](CC(C)C)C(=O)N[C@H](C(=O)N[C@@H](CC(N)=O)C(=O)N[C@@H](CCC(=O)O)C(=O)N[C@@H](CO)C(N)=O)C(C)C)NC(=O)[C@H](CO)NC(=O)[C@H](CCCCN)NC(=O)[C@H](C(C)C)NC1=O
notes: also called Ac-RNLA$VKS$LVNES-NH2
B13: SP50 (peptide)
peptide: LGANDELISFADEGAQEEKSS
chain: AARDLANVKSSLV
modifications: not fully specified; N-terminal acetyl; C-terminal amide; PEG3 = NH-(PEG)3-COOH (16 atoms) linker between the two peptide parts; $ = (S)-alpha-(2'-pentenyl)alanine at positions 11 and 15 of the first part and at positions 2 and 6 of the second part, each pair joined by an all-carbon crosslinker with one double bond
notes: The two peptide parts are joined by a non-peptide PEG3 spacer, not by a peptide bond

Bridges are numbered along the chain shown (N, C = ends). [ ]: non-standard residue; d: D form. R8 = C=CCCCCCC[C@@](C)(N)C(=O)O; S5 = C=CCCC[C@](C)(N)C(=O)O

The term IC50 denotes the concentration at which inhibition is half-maximal.

The target in the assay is T1, C-terminally 6x Histidine-tagged …. Kind of assay: competitive fluorescence polarization, FAM-labelled linear probe as competitor, His-tagged beta-catenin 134-668. Summed up:
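FP competition in 25 mM Tris-HCl pH 7.5, 200 mM NaCl, 5 mM CHAPS, 2 mM DTT at room temperature. Competitor peptides at 40–0.7 μM 2× working range, constant DMSO. Probe (benchmark peptide with N-terminal FAM via β-Ala spacer) from 25 nM 10× stock. Read after 3 h in the dark, ex 485/em 528 nm.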
(In fluorescence polarisation assays a small probe gives low polarisation when free and higher when bound to something large.)
As for B1, the IC50 is ≥ 100 µM. For B2, the concentration for half-maximal inhibition (IC50) was ≥ 100 µM. As for B3, the IC50 is ≥ 100 µM. Turning to B4, the half-maximal inhibitory concentration (IC50) is ≥ 100 µM. As to B5, the IC50 was ≥ 100 µM. As to B6, the IC50 is ≥ 100 µM. The same measure for B7: ≥ 100 µM; for B8: ≥ 100 µM. B9: the IC50 was ≥ 100 µM. The same measure for B10: 0.603 µM; for B11: ≥ 100 µM; for B12: ≥ 100 µM. B13: the IC50 turned out to be 1.1 µM.
